What all share (conditions): both partners purified
One test concerns the target T1, purified HDAC1-flag (UniProt Q13547 1-482).
T1 construct: histone deacetylase 1 with a flag tag; also called HDAC1-flag fusion protein; flag-HDAC1; source: HEK293T, expressed, purified
The test is described as follows: pull-down; GST pull-down in vitro: GST-tagged HP1γ held, purified HDAC1-flag as input.

In another test the target is T2, GST-MDC1-mC-IDR1 (UniProt Q14676 143-339).
T2 construct: MDC1 intrinsically disordered region 1 (IDR1), residues 143-339; In the droplet and turbidity assays the protein is called mCherry-MDC1-IDR1; also called GST-tagged-mCherry-MDC1-IDR1; MDC1-IDR1; source: purified
T2 sequence (looked up): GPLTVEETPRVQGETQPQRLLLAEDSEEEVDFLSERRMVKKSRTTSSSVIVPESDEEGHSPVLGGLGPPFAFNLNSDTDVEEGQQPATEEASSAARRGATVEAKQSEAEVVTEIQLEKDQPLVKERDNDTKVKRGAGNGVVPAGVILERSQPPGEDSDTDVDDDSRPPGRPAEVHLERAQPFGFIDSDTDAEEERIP
Nature of the test: pull-down; GST pull-down in vitro: GST-tagged mCherry-MDC1-IDR1 or -IDR2 held, purified HP1γ-GFP.

Another test addresses T3, GST-MDC1-mC-IDR2 (UniProt Q14676 354-539).
T3 construct: MDC1 intrinsically disordered region 2 (IDR2), residues 354-539; In the droplet and turbidity assays the protein is called mCherry-MDC1-IDR2; also called GST-tagged-mCherry-MDC1-IDR2; MDC1-IDR2; source: purified
T3 sequence (looked up): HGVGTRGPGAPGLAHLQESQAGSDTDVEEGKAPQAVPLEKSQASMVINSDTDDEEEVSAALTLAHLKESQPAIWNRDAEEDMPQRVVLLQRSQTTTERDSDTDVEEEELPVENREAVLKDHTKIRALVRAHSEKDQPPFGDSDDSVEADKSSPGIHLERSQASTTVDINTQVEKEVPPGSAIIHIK
The description is as above.

T1 sequence (Q13547 whole entry, the tested form may be a part): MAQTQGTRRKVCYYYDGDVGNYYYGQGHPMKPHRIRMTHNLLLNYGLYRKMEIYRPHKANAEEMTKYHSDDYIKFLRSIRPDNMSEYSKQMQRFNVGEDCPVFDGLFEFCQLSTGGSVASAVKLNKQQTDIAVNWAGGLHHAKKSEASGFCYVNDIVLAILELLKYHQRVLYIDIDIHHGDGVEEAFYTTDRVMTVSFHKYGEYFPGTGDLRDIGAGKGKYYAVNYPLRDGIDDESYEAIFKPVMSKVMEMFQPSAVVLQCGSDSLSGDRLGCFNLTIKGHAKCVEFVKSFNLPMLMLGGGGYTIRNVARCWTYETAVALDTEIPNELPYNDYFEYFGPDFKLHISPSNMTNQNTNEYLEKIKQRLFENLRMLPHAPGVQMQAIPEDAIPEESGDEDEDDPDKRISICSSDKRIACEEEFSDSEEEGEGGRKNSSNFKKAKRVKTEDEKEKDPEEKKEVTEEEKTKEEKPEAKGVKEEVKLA

B1: GST-fusion HP1γ protein (natural protein)
chain: not shown
notes: HP1γ (CBX3) fused to GST; Probably made in E. coli BL21 as the other GST fusions of the methods (surmised); also called GST-HP1γ; GST-tagged-HP1γ; source: purified GST-fusion protein ('in vitro expression')
Turning to B1, in the test with purified HDAC1-flag, the binding result is “binds”.

B2: purified HP1γ-GFP (natural protein)
chain: not shown
notes: HP1γ (CBX3) fused to GFP; the HP1γ-GFP of the pull-down is probably the full-length one (surmised); also called GFP-HP1γ; source: E. coli BL21, purified (glutathione agarose, released by HRV 3C protease)
Consider B2, for which the binding result in the test with GST-MDC1-mC-IDR1 and with GST-MDC1-mC-IDR2 was “binds” each time.

The record behind these values is paper PMC9998874, “Deacetylation induced nuclear condensation of HP1γ promotes multiple myeloma drug resistance” (Nature Communications, 2023).
